Patent US20220001043A1 (IMAGINAB, published 2022)
One block for each binder: values may come before it.

What was measured:
[1] = molecular target: T1, human CD8 (Homo sapiens, UniProt P01732 22-235; A6NJW9 19-210); assay: binding to CD8 glycoprotein; method not given
T1 construct: CD8 as carried by purified human T cells, HPB-ALL leukemia cells, human tissues and CD8+ cells in patients; also called huCD8; CD8 glycoprotein

[2] = molecular target: T1, human CD8; assay: flow cytometry on human T cells carrying CD8
Procedure: (§1) The binding affinity and specificity of IAB22M2C and Zr-Df-IAB22M2C to human CD8 expressed on cell surfaces were evaluated by flow cytometry for a several cell types, including HPB-ALL leukemia cells (DSMZ, Braunschweig, Germany), purified human T cells, and PC3 prostate cancer cells engineered to express huCD8 (ImaginAb, Inc.).

[3] = molecular target: T1, human CD8; assay: flow cytometry on HPB-ALL cell line carrying CD8
Procedure: as §1

[4] = molecular target: T1, human CD8; assay: cell binding; read as HPB-ALL cells ('respectively' taken to mean the cell types, as in p-1525)
[5] = molecular target: T1, human CD8; assay: cell binding; read as purified human T cells ('respectively' taken to mean the cell types, as in p-1525)

T1 sequence (P01732 22-235 limits assumed, chain 1 of 2): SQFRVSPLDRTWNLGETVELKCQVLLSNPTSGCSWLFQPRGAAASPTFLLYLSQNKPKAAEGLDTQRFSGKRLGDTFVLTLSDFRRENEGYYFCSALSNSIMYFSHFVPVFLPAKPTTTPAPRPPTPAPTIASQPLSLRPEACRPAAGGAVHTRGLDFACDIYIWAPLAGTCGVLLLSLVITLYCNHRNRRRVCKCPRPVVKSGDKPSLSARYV
T1 sequence (A6NJW9 19-210 C51R/T71A limits assumed, chain 2 of 2): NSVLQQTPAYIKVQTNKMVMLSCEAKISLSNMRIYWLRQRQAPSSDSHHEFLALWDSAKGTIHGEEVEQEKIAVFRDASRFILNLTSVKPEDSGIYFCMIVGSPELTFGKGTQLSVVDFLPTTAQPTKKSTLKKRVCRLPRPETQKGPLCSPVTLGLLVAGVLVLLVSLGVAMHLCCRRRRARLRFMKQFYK

- EC50 [1]: 0.4 nM
B1: 89Zr-Df-IAB22M2C (other)
chain: DVQITQSPSSLSASVGDRVTITCRTSRSISQYLAWYQQKPGKVPKLLIYSGSTLQSGVPSRFSGSGSGTDFTLTISSLQPEDVATYYCQQHNENPLTFGGGTKVEIKGSTSGGGSGGGSGGGGSSEVQLVESGGGLVQPGGSLRLSCAASGFNIKDTYIHFVRQAPGKGLEWIGRIDPANDNTLYASKFQGKATISADTSKNTAYLQMNSLRAEDTAVYYCGRGYGYYVFDHWGQGTLVTVSSEPKSSDKTHTCPPCPPCGGGSSGGGSGGQPREPQVYTLPPSREEMTKNQVSLTCLVKGFYPSDIAVEWESNGQPENNYKTTPPVLDSDGSFFLYSKLTVDKSRWQQGNVFSCSVMHEALHNHYTQKSLSLSPG
modifications: deferoxamine (Df) conjugated to lysine residues, radiolabeled with 89Zr
notes: Radiolabeled drug product; Same polypeptide as m1; For patients it is formulated together with cold unconjugated IAB22M2C; also called 89Zr-Df-IAB22M Lot: 42-040A; CD8 PET tracer

- EC50 [2]: 0.4 nM
- EC50 [3]: 0.3 nM
B2: IAB22M2C (other)
chain: B1 chain
notes: also called IAB22M2C Mb; IAB22M2C minibody

- EC50 [4]: 0.3 nM
- EC50 [5]: 0.4 nM
B3: Df-IAB22M2C (other)
chain: B1 chain
modifications: deferoxamine (Df) conjugated to lysine residues; chelator:minibody ratio of approximately 2
notes: Same polypeptide as m1; also called desferrioxamine-conjugated IAB22M2C; Df-IAB22M2C critical intermediate
